Laboratory results reported in patent US11857601 (dated 2024).

Target: Human CTLA-4/CD152, His tag (Sino Biological, Cat: 11159-H08H) (human, UniProt P16410 36-162)
Assay: BLI

Chain of Human CTLA-4/CD152, His tag (Sino Biological, Cat: 11159-H08H) (P16410 36-162): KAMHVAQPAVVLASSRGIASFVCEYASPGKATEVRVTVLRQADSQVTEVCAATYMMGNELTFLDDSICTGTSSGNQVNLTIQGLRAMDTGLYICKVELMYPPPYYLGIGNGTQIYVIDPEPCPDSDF

B1: GI101C1 (hCD80-Fc) (Fc fusion)
chain: VIHVTKEVKEVATLSCGHNVSVEELAQTRIYWQKEKKMVLTMMSGDMNIWPEYKNRTIFDITNNLSIVILALRPSDEGTYECVVLKYEKDAFKREHLAEVTLSVKADFPTPSISDFEIPTSNIRRIICSTSGGFPEPHLSWLENGEELNAINTTVSQDPETELYAVSSKLDFNMTTNHSFMCLIKYGHLRVNQTFNWNTTKQEHFPDNGSGGGGSGGGGSGGGGSAESKYGPPCPPCPAPEAAGGPSVFLFPPKPKDQLMISRTPEVTCVVVDVSQEDPEVQFNWYVDGVEVHNAKTKPREEQFNSTYRVVSVLTVLHQDWLNGKEYKCKVSNKGLPSSIEKTISKAKGQPREPQVYTLPPSQEEMTKNQVSLTCLVKGFYPSDIAVEWESNGQPENNYKTTPPVLDSDGSFFLYSRLTVDKSRWQEGNVFSCSVLHEALHNHYTQKSLSLSLG
- Kd: 3.2 nM
